Biological target: HLA-DR, human (human)
Test: cell-based or functional assay

Substance	lysis rate (LDH cytotoxicity assay, Raji target cells) [%]
Lym-1 CAR	22
Lym-2 CAR	22

Source: patent publication EP3515493A1
